Source: the NTF2 design screens of Basanta et al. (2020)

Test: protease stability score; higher = more stable; yeast display proteolysis, trypsin and chymotrypsin;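 also: relative to predicted unfolded state with 0 unfolded-like and 1 meaning tenfold more protease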

Sequence | protease stability score
DERDEHSRHVAELWLQSMETGDWEHDRRLLDPNMKFEAPNHSLHGRDSYVETMRKIKNLVIHDTKIEHYEVQGDKAHVQMRIDVIVGDKRTWVEVRVEIVVVDGVLHSLRIEIE | 0.777
DERDELLEHVIKLHQDALRTGDEHTLTELMDPHVRVIIGDKHHHGWESITKYLRELRFHSHEVHIDHVHIFNGRIHADITLRGTHHFNGRTFHDTHKVELINTKINGKWTIESLIIR | 1.15
DERDELVEIVFRLYLRLLTTGDEQEWHHLADPDTRLHIGDKDFHGRENVNKHRRDNLERVKGIKLRDVKITQVHLIDGVLHIDIRLDVEYDGRRTELKVRVISEKVDGKWFIKSIIIE | 1.44
DERDELVRQLMEWLVRAYITGDFETLKNLFDPNAKVRVNGRELIGMETFWQLLWHLRFTDHKIDSVEMQGEKVTVNVTLFIDVNGREETKKSHLIFVVVNGRLKSMDFRYE | 1.66
DERDEMSRHLVRLWIRLYRTGDWKELYDNLDPNARLIIGDKEYHGREEVVEIFLELAKRFKNVKVEFKEIHFQGDKMTLREEVRQGDWRVEVIIKVEFIDGKLHHVQIIFG | 2.75
DERDEMTDHALQRVHEMLLTGDERLLSELFDPNARSQIGDKHVHGRDEVAKTFTEQLEKLGVDHVHFRSVDIQGEKLIIHMHFRVGDKHFQVIIIIVKVNGRWYWTNMHVILH | 1.1
DERDEQAEEAMKIWIHSVQTGNEDLLRRLVDPHVRITVGDKEIHGREQFAEYYHRLVTELRIHIHIHRITVINGQVHSHVEIRIQIGDKEISFETRMFILKVDGVWLFKREEVT | 0.744
DERDERLTEFLELYFKLWFTGDEDTFAHLADPNTRSVFNGKWIHGMESYSEWVEKHMRHLRFKDMKIRDSRVVDGQIHMNTEVEGEVNGQRYRVETRIILDVIDGRIKEVRLHIH | 1.24
DERDESLKNIFELLERILETGDEDDSSKLADPHTRMHWNGKELHGRELYADLFDRLLRELGVDHVRLKIHEVRIQGDKIRMDGTLHLIQGDKEERRRVHLVAHKINGRWHIKQVSIN | 1.26
DERDEVLEDTARRVLEWLTTGNWEELAKYADPNVKNDINGRIDHGREEMSRRIREELHKVKNLKFNITYFDIIGDKVHFWGTLHYDGRTMETHIHIEVVDGRLHHMQFEIK | 0.983
DERDEYLHEWTRLLIELFETGNFEFLVEMMDPNVQIDIGDKHFIGWELAVHFLEEFLRQFKNARWEITRFRRYDGRIEMDTIMRINGREIKVKIIVIVIDGRVKSRHEEYR | 0.595
DERDREVHLASELLHRIVRTGNEEVFEDYLDPNVRVRVNGVESWGMDSFKHWLKEIRIHSHEVDHFDVIGDKLHFDTRVDGEFDGRRDIYKSEVHAEKINGRWIFKIVIFR | 1.19
DEREDEVRLATEHVERILQTGDEELFRHFVDPRVRMDYNGKDVHGREVILEWIVKIKNLTVRIDDVEVQGDKMLIRSHWTIGDKQHHLRIIATKINGRWESTSVHIH | 1.02
DEREEASERMAELIVHLFETGDEDLIRRMVDPHVRWEFNGREIMGRELTTHVLHEIYHRVKNIRYRIESLDIQGDWLLVNSRLHVNGRTIEIHLIVEKVNGRWTLRELIVKVD | 1.65
DEREEDAREAEEIILEDLRTGDWERISRNFDPNVRMHVGDKKYHGREDAIREIKRLMSDMGIKHHSITDSRLQGEWLFLHVEVHFNGRTHDVEIIMIKVNGKWVFKEVRIG | 1.99
DEREEEAERILREWIKAVETGDFEQIMRYLDPNVRIIVNGKHHHGREILVHLIIRFLRELGADHITFHHDRIHLYDGVLVIDIHLEIRQGDKRYEFHEEIYIIKVNGRWIVRRVIIR | 2.8
DEREEEAERIMRLFQEFERTGDEDMLRHLVDPDARWVVGDKFQHGWHHFHRLLHHLRVRDLKPKSLHIDVQGDKVEVILHQEMDGEINGKRVIYHVVVIIIVNKFNGRWRNETVEVRFH | 0.843
DEREEEARKWIELFLRHLLTGDEDSLQELADPHTRNIVGDKDLIGWRFMIKYVRDVRERFDHIEFHITRMEVQGDKVRVDVRIINIVGDKHFEIESHIVTEKINGKWRLKSMELR | 1.51

Sequence | protease stability score
DEREEELHHMLEVLEFAFHTGDFEKLSKMFDPHVRIDVNGQELHGWKHAHEHIEDLFRKVKNIRLEFRDIRFQGDKIDIDGIMIFNGVRHEVKIITVKVNGRWLWRSINIH | 2.33
DEREEEMQRIMEDFIRAWSTGDEKRLKELIDPRDRMIINGKERHGMEEWKTLWETLGINYIDIEHVHLQGEKARIHGTSKFNGRHHEVRIEIRVVDGRFTEVHVDII | 1.78
DEREEESERWVRLLLHYLLTGDFRRIEELVDPNARSIIGDKRHHGREIVVEWMTRYKNARVEVKDFHIQGDKLQLHVEVQIDGRTFKLDIELYKVNGKWLLRTLHVEEL | 1.44
DEREEESKRATEKVTRDIHTGDEDLHRHLLDPNAKLVFNGREFVGREEVEKILKWFLDRAGVDKINMTIHDVRVVDGRIKLDGRNNINGVEYTVIWISEKYNGRWFDRMIIFS | 0.493
DEREEFIHIAIHLLIHVDRTGDEDTYRKMMDPTTKLEVNGVKYIGRQEVIKFLRHIRIDSQDIKRWELVGDKVDLDVHVDGDVNGRRVREDRQIHLWKVDGRWVLEKIEYK | 0.955
DEREEFVLSMAELWIHAVLTGDEELERQLIDPHARNNINGRTIHGMEMFNKFWIRLLQEIRFEIEIRRFHIQGEKMHFDGVLRLRYDGREEVLRVHVEIVIVDGRLHEVHIKIK | 1.33
DEREEHAEEIFRELIHWMETGDEKKMRRYFDPHARLEVGDKEFIGREKISEWMVELRLKDHKERHFDVVNGVAEIHGVMDGIIDGRRHRTEVIIDINIINGKFHRIRIIVK | 1.21
DEREEHHEENARLLLEQFKTGNWDFLRSLADPNVQHNWDGRKSHGRESMVRLLIDHIRKVKGMRTEEKEVEFQGDKVILHGRVNINGREIEVIFILEVVDGRIKSLHIDFR | 0.697
DEREEIAKHLLDLLMHFSKTGDWKKIEDLFDPNTRIHINGVEHVGMEEIARHISEWRIHSIHIKHLDYQGEFIHMDGELDVEVNGRRHKTRMHIIVVKYNGRWLIHHIEVH | 2.03
DEREEIIRKALELFIFSMKTGDEHTLTELLDPNVRLLVGDKEFHGREVFHILIQQFKNIRVEHFEHKDWYEQGDKMRITGRLTFRQGDKRTEIDTTLIILKINGRWIMHDIVIS | 2.17
DEREELAEHMIRLLTERLITGDERIEQELADPNVRFELDINGKSVDTHGMENVLEWIRKWYEHFGVTNFDLRIHRIRVIGEYAHNDGEIIQGDKTRRVHIRMVVINGRVHEVIIHVR | 1.22
DEREELDEHWFRLQFQAMETGDENLVRDNLDPHVKVVVGDKEFVGRHYAIRLFHDLGVDHLVKKSEDRQGEKVIVHGRLDIGDKRHEIVLIIRKIDGKWVVHEIIIR | 1.35
DEREELIQRFLEMLIHLYLTGDEDWFLRMADPNARLHWNGKDRHGREIILEELIRLLRRFDHVRIDVKKFEVQGDKVIADGLEIYTQGDKRIEVDTKIVLTTVNGKLKTLVWHID | 0.642
DEREELLRRWTEEFLDVFHTGDPKETMDMVDPHARIIVIINGRTIEDHGWEHVKILLEQIRVHDFHLTDVRVVNGKVRIDGRYDGYVNGQRVDHHVIIINVVVDGRTHTLLIEIR | 0.804
DEREELSKHITERFIRSVQTGDERVLKELIDPHARVIVDGRRFIGRHVWVKILKDLGIDHLEIEHVDLIGDKARIDSRVDVDGQEHNVKIHLEVINGRIHWIEERIK | 1.04
DEREELVTRFWKFFVEASRTGDWRKLEDRADPHVRLHIDGVDLHGREEFAEEHRRHLKKFKNVKIHYEIHDMDIQGEKVHVDYRIRLDIGDKRTENIIRMDIVKIDGKWLIQEMHVD | 0.89
DEREEMSRHMINLWNRHLETGDEDRISKLADPHVKVTNEDEEHVGRESAERFVRLMGFDHVHLHDIHIQGNKVISTVEIRIDGQTYQSDVVALKVDGKWKVKNVHIH | 0.711
DEREEMVERFLTEWLRSLVTGDWEDSEKLFDPNVRIHVNGREFHGRHEAIKHFHELRIHKIELKSIDIQGNKAHVDVEVDGNVNGQNRIIKVNLFFKKVNGRWYFEQVEIH | 1.24
